Results as given in patent publication US20210340207A1 (Merck Sharp & Dohme, published 2021).
*1 amine or outer side, *2 acyl side, *3 side chain or, on linkers, in order; H or OH if unused. Side-chain parts run from the residue outwards. [ ]: non-standard residue; d: D form. pAMF = para-azidomethylphenylalanine, [N-]=[N+]=NCc1ccc(C[C@H](N[*:1])C(=O)[*:2])cc1

Assays:
[1] = biological target: T1, Human IL-2Rβ, His tag (Table 10) (human, UniProt P14784 27-239, limits assumed); experiment: SPR (Biacore T200), receptor captured on anti-histidine surface
T1 construct: not shown: polyhistidine tag
T1 sequence (looked up): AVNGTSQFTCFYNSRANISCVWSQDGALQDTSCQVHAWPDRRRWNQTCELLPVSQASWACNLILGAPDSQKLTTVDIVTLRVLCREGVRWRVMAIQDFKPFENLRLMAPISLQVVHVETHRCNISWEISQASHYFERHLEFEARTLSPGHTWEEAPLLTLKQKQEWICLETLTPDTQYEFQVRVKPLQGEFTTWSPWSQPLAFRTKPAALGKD
Description: (§1) A Surface Plasmon Resonance (SPR) assay on a Biacore T200 (GE Healthcare) instrument was used to determine the monovalent affinities of pegylated aldesleukin variants against polyhistidine-tagged or Fc-tagged IL-2 Receptors. Biacore T200 Evaluation Software was used to fit each titration series to a 1:1 binding model or steady state affinity. The association (kₒₙ, M⁻¹ s⁻¹) and dissociation (koff, s⁻¹) rate constants were determined for each set of titrations and used to calculate the dissociation constant, KD=koff/kₒₙ, of each sample against each receptor. koff/kₒₙ values are not reported herein.
(§2) To measure the affinity of CON1 and aldesleukin for IL-2R subunits, receptors were captured on either an anti-histidine or anti-hu Fc antibody surface. […] CON1 has a six-fold lower affinity for Human and Cynomolgus/Rhesus IL-2-Rβ than aldesleukin.

[2] = biological target: T2, Cynomolgus/Rhesus IL-2Rβ, His tag (Table 10) (cynomolgus monkey / rhesus monkey, UniProt Q38J85 27-240); experiment: as above
T2 sequence: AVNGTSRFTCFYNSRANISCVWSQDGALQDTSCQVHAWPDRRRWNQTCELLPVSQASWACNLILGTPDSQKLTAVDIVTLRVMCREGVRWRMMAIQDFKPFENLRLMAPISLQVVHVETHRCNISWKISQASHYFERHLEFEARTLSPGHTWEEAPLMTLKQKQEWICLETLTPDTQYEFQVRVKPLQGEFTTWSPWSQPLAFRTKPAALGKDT
Description: as §1, §2

KD/KD (human) [1]: 1 ratio | Kd [1]: 4.4 µM | KD/KD (human) [2]: 1.2 ratio | Kd [2]: 5.4 µM
B1: Ald_S4pAMF(PEG1)/R37A/F41K (CON1) (ligand)
chain: PTS[pAMF]([DBCO‑triazole-mPEG 30 kDa])STKKTQLQLEHLLLDLQMILNGINNYKNPKLTAMLTKKFYMPKKATELKHLQCLEEELKPLEEVLNLAQSKNFHLRPRDLISNINVIVLELKGSETTFMCEYADETATIVEFLNRWITFSQSIISTLT
modifications: not fully specified (bridges)
notes: also called Des-A1_IL-2_S4pAMF(PEG1)/R37A/F41K/C124S
